Reference: article PMC7179994 (2019)

Target: VLDL receptor (Homo sapiens, UniProt P98155)
Test: SPR

Kd: 9.6 nM
B1: NDSK-II fragment of fibrin NDSK-II (central region) (protein)
chain 1: ADSGEGDFLAEGGGVRGPRVVERHQSACKDSDWPFCSDEDWNYKCPSGCRMKGLIDEVNQDFTNRINKLKNSLFEYQKNNKDSHSLTTNIMEILRGDFSSANNRDNTYNRVSEDLRSRIEVLKRKVIEKVQHIQLLQKNVRAQLVDMKRLEVDIDIKIRSCRGSCSRALAREVDLKDYEDQQKQLEQVIAKDLLPSRDRQHLPLIKMKPVPDLVPGNFKSQLQKVPPEWKALTDMPQMRMELERPGGNEITRGGSTSYGTGSETESPRNPSSAGSWNSGSSGPGSTGNRNPGSSGTGGTATWKPGSSGPGSTGSWNSGSSGTGSTGNQNPGSPRPGSTGTWNPGSSERGSAGHWTSESSVSGSTGQWHSESGSFRPDSPGSGNARPNNPDWGTFEEVSGNVSPGTRREYHTEKLVTSKGDKELRTGKEKVTSGSTTTTRRSCSKTVTKTVIGPDGHKEVTKEVVTSEDGSDCPEAMDLGTLSGIGTLDGFRHRHPDEAAFFDTASTGKTFPGFFSPMLGEFVSETESRGSESGIFTNTKESSSHHPGIAEFPSRGKSSSYSKQFTSSTSYNRGDSTFESKSYKMADEAGSEADHEGTHSTKRGHAKSRPVRDCDDVLQTHPSGTQSGIFNIKLPGSSKIFSVYCDQETSLGGWLLIQQRMDGSLNFNRTWQDYKRGFGSLNDEGEGEFWLGNDYLHLLTQRGSVLRVELEDWAGNEAYAEYHFRVGSEAEGYALQVSSYEGTAGDALIEGSVEEGAEYTSHNNMQFSTFDRDADQWEENCAEVYGGGWWYNNCQAANLNGIYYPGGSYDPRNNSPYEIENGVVWVSFRGADYSLRAVRMKIRPLVTQ
chain 2: QGVNDNEEGFFSARGHRPLDKKREEAPSLRPAPPPISGGGYRARPAKAAATQKKVERKAPDAGGCLHADPDLGVLCPTGCQLQEALLQQERPIRNSVDELNNNVEAVSQTSSSSFQYMYLLKDLWQKRQKQVKDNENVVNEYSSELEKHQLYIDETVNSNIPTNLRVLRSILENLRSKIQKLESDVSAQMEYCRTPCTVSCNIPVVSGKECEEIIRKGGETSEMYLIQPDSSVKPYRVYCDMNTENGGWTVIQNRQDGSVDFGRKWDPYKQGFGNVATNTDGKNYCGLPGEYWLGNDKISQLTRMGPTELLIEMEDWKGDKVKAHYGGFTVQNEANKYQISVNKYRGTAGNALMDGASQLMGENRTMTIHNGMFFSTYDRDNDGWLTSDPRKQCSKEDGGGWWYNRCHAANPNGRYYWGGQYTWDMAKHGTDDGVVWMNWKGSWYSMRKMSMKIRPFFPQQ
chain 3: YVATRDNCCILDERFGSYCPTTCGIADFLSTYQTKVDKDLQSLEDILHQVENKTSEVKQLIKAIQLTYNPDESSKPNMIDAATLKSRKMLEEIMKYEASILTHDSSIRYLQEIYNSNNQKIVNLKEKVAQLEAQCQEPCKDTVQIHDITGKDCQDIANKGAKQSGLYFIKPLKANQQFLVYCEIDGSGNGWTVFQKRLDGSVDFKKNWIQYKEGFGHLSPTGTTEFWLGNEKIHLISTQSAIPYALRVELEDWNGRTSTADYAMFKVGPEADKYRLTYAYFAGGDAGDAFDGFDFGDDPSDKFFTSHNGMQFSTWDNDNDKFEGNCAEQDGSGWWMNKCHAGHLNGVYYQGGTYSKASTPNGYDNGIIWATWKTRWYSMKKTTMKIIPFNRLTIGEGQQHHLGGAKQVRPEHPAETEYDSLYPEDDL
